Results published in patent EP4435012A1 (Juventus Cell Therapy Ltd., dated 2024).

T1: BCMA on MM.1S cells (human multiple myeloma cells that endogenously express BCMA) (human, UniProt Q02223 1-184)
T1 sequence (looked up): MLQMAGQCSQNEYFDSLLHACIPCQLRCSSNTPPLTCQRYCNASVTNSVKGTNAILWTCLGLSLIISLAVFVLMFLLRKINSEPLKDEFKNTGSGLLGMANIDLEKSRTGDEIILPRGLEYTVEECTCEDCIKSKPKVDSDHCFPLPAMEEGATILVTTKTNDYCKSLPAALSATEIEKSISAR


Target: T1, BCMA on MM.1S cells (human multiple …)
Assay: cell-based or functional assay

| Binder | killing of target cell (luciferase activity in target cell, effector/target 1:4, 48 hours) [%] |
| --- | --- |
| BY-01G CAR (on BCMA CAR-T cell BY-01G) (other) EIVMTQSPSTLSASVGDRVIITCQASENIYRNLAWYQQKPGKAPKLLIYAASLLASGVPSRFSGSGSGAEFTLTISSLQPDDFATYYCQNAFYSSSADNPFGQGTKLTVLGGGGSGGGGSGGGGSEVQLVESGGGLVQPGGSLRLSCTASGFSLSSYAMSWVRQAPGKGLEWIGMISSSGSTHYASWAKGRFTISRDTSKNTVYLQMNSLRAEDTAVYYCARDFYVYSSGTYLEYGMDLWGQGTLVTVSSTTTPAPRPPTPAPTIASQPLSLRPEACRPAAGGAVHTRGLDFACDIYIWAPLAGTCGVLLLSLVITLYCKRGRKKLLYIFKQPFMRPVQTTQEEDGCSCRFPEEEEGGCELRVKFSRSADAPAYQQGQNQLYNELNLGRREEYDVLDKRRGRDPEMGGKPRRKNPQEGLYNELQKDKMAEAYSEIGMKGERRRGKGHDGLYQGLSTATKDTYDALHMQALPPR | 100 |
| BY-04G CAR (on BCMA CAR-T cell BY-04G) (other) EIVMTQSPSTLSASVGDRVIINCQASQSVFSNNYLAWYQQKPGKAPKLLIYRASNLASGVPSRFSGSGSGAEFTLTISSLQPDDFATYYCQPTYLSGDWYVAFGQGTKLTVLGGGGSGGGGSGGGGSEVQLVESGGGLVQPGGSLRLSCTASGFSLNYYGMGWVRQAPGKGLEWIGIIAGDRDTYYATWAKGRFTISRDNSKNTVYLQMNSLRAEDTAVYFCARGSYSSTWDGAFDLWGPGTLVTVSSTTTPAPRPPTPAPTIASQPLSLRPEACRPAAGGAVHTRGLDFACDIYIWAPLAGTCGVLLLSLVITLYCKRGRKKLLYIFKQPFMRPVQTTQEEDGCSCRFPEEEEGGCELRVKFSRSADAPAYQQGQNQLYNELNLGRREEYDVLDKRRGRDPEMGGKPRRKNPQEGLYNELQKDKMAEAYSEIGMKGERRRGKGHDGLYQGLSTATKDTYDALHMQALPPR | 100 |
